Measured values taken from paper PMC9867676.

How the values were obtained:
[1] = test system: T1, RinA (Staphylococcus aureus NCTC8325 (phage phi11)), ORF:ad3d0fcb; assay: EMSA; settings: 50 mM Tris-HCl, 300 mM NaCl, pH 8.0 ([…], room temperature
T1 sequence: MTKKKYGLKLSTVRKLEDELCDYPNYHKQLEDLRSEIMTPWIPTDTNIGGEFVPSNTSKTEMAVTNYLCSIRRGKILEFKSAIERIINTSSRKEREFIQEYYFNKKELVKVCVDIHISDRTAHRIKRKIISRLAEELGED

[2] = test system: T1, RinA (Staphylococcus aureus NCTC8325 (phage phi11)), ORF:ad3d0fcb; assay: competition; settings: 50 mM Tris-HCl, 300 mM NaCl, pH 8.0 ([…], room temperature

Sequence	binding [1]	binding [2]
CTAAACCAAATGCTAACCCAGAAATACAATCACTGTGTCTAATGAATAATTTGTTTTATAAACACTTTTTTGTTTACTTCTCATTTTTAATTAGTTATAATTAACTAAATAATAGAGCATTAAATATATTTAATAAAACTTATTTAATGCAAAATTATGACTAACATATCTATAATAAATAAAGATTAGATATCAATATATTATCGGGCAAATGTATCGAGCAAGATGCATCAAATAGGGAGGTTTTAAACATGGC (double strand) [sarA promoter fragment (FAM)]	binds	–
CTAAACCAAATGCTAACCCAGAAATACAATCACTGTGTCTAATGAATAATTTGTTTTATAAACACTTTTTTGTTTACTTCTCATTTTTAATTAGTTATAATTAACTAAATAATAGAGCATTAAATATATTTAATAAAACTTATTTAATGCAAAATTATGACTAACATATCTATAATAAATAAAGATTAGATATCAATATATTATCGGGCAAATGTATCGAGCAAGATGCATCAAATAGGGAGGTTTTAAACATGGC (double strand) [sarA promoter fragment (unlabeled)]	–	binds
